Patent US20090011000A1, “Inhibitors of Infection” (priority 2004, published 2009)
Like-named read-outs stand apart in the source and are kept apart here.

B1: chrtm5: gp41 residues 118 to 200 with N-terminal HIS-tag, TEV and Enterokinase protease sites, transmembrane region, five cytoplasmic residues (protein)
chain: PCVKLTPLCVSLKCTDLKNDTNTNSSSGRMIMEKGEIKNCSFNISTSIRGKVQKEYAFFYKLDIIPIDNDTTSYKLTSCNTSV
modifications: left off: small tags and cut ends
notes: gp41 residues 118 to 200 with N-terminal HIS-tag, TEV and Enterokinase protease sites, transmembrane region, five cytoplasmic residues

Assays:
[1] = molecular target: HIVNL-4.3; settings: single round infection assay, TZM-b1 cells
Excerpt: Two days later, infection cells were lysed and expression of luciferase activity measured.
HIV Neutralization assay.
These C-terminal peptides interact with the N-terminal coiled coil of gp41 thus blocking the refolding of gp41 into the six helical bundle structure ({115}, {116}. {117} and {39}).

[2] = test system: rabbits; assay: Immunization of rabbits with chrtm5 proteoliposomes, Western blot of serum; assay type: in vivo; settings: chrtm5 incorporated into proteoliposomes, two rounds of immunization, preliminary
Method: The oligomeric forms of CHRTM5 are indicated by numbers. The same pattern was obtained with serum dilutions of 1:50, 1:100 and 1:1000.
Liposome preparation. Phospholipids were dissolved in chloroform and dried under a steam of nitrogen. Lipid films were resuspended in reconstitution buffer (25 mM HEPES pH 7.4, 0.1 M KCl). The turbid MLV suspension was passed 21 times through a polycarbonate membrane to give large unilamellar vesicles (LUV) with a diameter of 100 nm. LUVs were solubilized with 20 mM β-OG for one hour at 4° C., and afterwards incubated with protein for an additional hour. The proteoliposome solution was dialyzed with a Liposomat against reconstitution buffer for three hours at room temperature. Pure proteoliposomes were separated from excess protein by gel filtration through a Sephadex G-50 column and were collected by ultracentrifugation at 250000×g for one hour at 4° C. The pellet of pure proteoliposomes was resuspended in reconstitution buffer. The proteoliposomes were used in immunization studies to determine the immunogenicity in rabbits.
chrtm5 can be incorporated into liposomes, which were used for immunization studies.

[3] = test system: mAb 4E10; assay: Pull down assay of chrtm5 with mAb 4E10; assay type: binding
Method: (§1) Lane 1—marker; Lane 2—control without antibody; Lane 3—mAb 2F5; and Lane 4—mAb 4E10.
(§2) Pull down assays were then performed to determine whether chrtm5 interacts with the neutralizing antibodies 2F5 and 4E10.

[4] = test system: mAb 2F5; assay: Pull down assay of chrtm5 with mAb 2F5; assay type: binding
Method: as §1, §2

[5] = test system: mAb 2F5 Fabs; assay: chrtm5/2F5 Fab complex, Superdex 200 gel filtration and SDS-PAGE; assay type: binding; settings: gel filtration, peak analysed by SDS-PAGE
Method: Chrtm5/2F5 Fab complexes were formed and purified on a Superdex 200 gel filtration column.
Fractions corresponding to the major peak shown in FIG. 10 were separated by SDS-PAGE and stained with Coomassie brilliant blue.
The oligomeric nature of chrtm5 was then further confirmed by purifying chrtm5 in complex with mAb 2F5 Fabs. This complex formation shifts the gel filtration profile to a larger molecular weight and chrtm5/2F5-Fab complexes elute at ˜12.5 ml (FIG. 10).

| Molecule | IC50 ([1]; HIVNL-4.3, luciferase activity 2 days later) [µg/mL] | IC50 ([1]; HIVNL-4.3, molar value in brackets) [nM] | immunogenicity [2] | pull down by antibody 4E10 [3] | pull down by antibody 2F5 [4] | complex formation with mAb 2F5 Fabs [5] |
| --- | --- | --- | --- | --- | --- | --- |
| enfuvirtide | 0.2 | 45 |  |  |  |  |
| B1 |  |  | immunogenic in rabbits | both antibodies pull down chrtm5 | both antibodies pull down chrtm5 | the peak contains both chrtm5 and 2F5 Fab fragments |
